B1: full-length AREB1: full-length Arabidopsis thaliana AREB1 protein (SEQ ID NO: 2), expressed from full-length cDNA under 35S promoter (protein, listed as Arabidopsis thaliana)
chain: MDGSMNLGNEPPGDGGGGGGLTRQGSIYSLTFDEFQSSVGKDFGSMNMDELLKNIWSAEETQAMASGVVPVLGGGQEGLQLQRQGSLTLPRTLSQKTVDQVWKDLSKVGSSGVGGSNLSQVAQAQSQSQSQRQQTLGEVTLEEFLVRAGVVREEAQVAARAQIAENNKGGYFGNDANTGFSVEFQQPSPRVVAAGVMGNLGAETANSLQVQGSSLPLNVNGARTTYQQSQQQQPIMPKQPGFGYGTQMGQLNSPGIRGGGLVGLGDQSLTNNVGFVQGASAAIPGALGVGAVSPVTPLSSEGIGKSNGDSSSLSPSPYMFNGGVRGRKSGTVEKVVERRQRRMIKNRESAARSRARKQAYTVELEAEVAKLKEENDELQRKQARIMEMQKNQETEMRNLLQGGPKKKLRRTESGPW

What was measured:
RD29B gene = test: RNA gel blot (Northern) analysis of downstream gene RD29B in transformed plants; assay type: in vivo, Arabidopsis thaliana
Procedure: Extraction of total RNA from plant bodies and RNA gel blot analysis using the total RNA were performed according to the method of Satoh et al (2004, Plant Cell Physiol. 45, 309-317) using a Shakemaster crusher (Bio Medical Science, Tokyo, Japan). Furthermore, probes for RNA gel blot analysis were prepared according to the method of Maruyama et al (2004, Plant J. 38, 982-993).
To prepare a pBE2113Not-AREB1 plasmid, the entire coding region of AREB1 was amplified by PCR using a primer with a Not I linker and then the resultant was introduced into pBE2113Not (Liu et al., 1998, Plant Cell 10, 1391-1406) in the sense orientation. pBE2113Not-AREB1ΔQT was prepared by amplifying the coding region of AREB1ΔQT by PCR using primers with Xba I and BamH I linkers and then introducing the resultant into the Xba I/BamH I site of pBE2113Not in the sense orientation.
To produce transformed plants with 35S-AREB1 and 35S-AREB1ΔQT, transformation vectors, pBE2113Not-AREB1 and pBE2113Not-AREB1ΔQT, were introduced into Arabidopsis thaliana (Columbia) by a suction-infiltration method (Osakabe et al., 2005, Plant Cell 17, 1105-1119) using the Agrobacterium tumefaciens C58 strain.
Here, it was examined whether or not overexpression of ABRE1ΔQT in Arabidopsis thaliana would activate the transcription of a downstream gene such as RD29B in the absence of external ABA. […]

RD29B-GUS reporter gene = test: Transient expression (transactivation) analysis with RD29B-GUS reporter in protoplasts of Arabidopsis thaliana T87 cells; assay type: cell-based; settings: in the presence of 50 μM abscisic acid (ABA)
Procedure: Analysis of transient expression was performed using protoplasts derived from Arabidopsis thaliana T87 cells according to a slightly modified version of the method of Fujita et al (2004, Plant J. 39, 863-876) and the method of Satoh et al (2004, Plant Cell Physiol. 45, 309-317). Protoplast isolation and gene introduction were all performed at room temperature (25° C. to 28° C.). Protoplasts in which the gene had been introduced were allowed to stand for 16 to 20 hours at 22° C. in the dark. An enzyme solution [0.4 M mannitol, 1.5% (w/v) cellulase “Onozuka” R-10 (Yakult, Tokyo, Japan), 0.3% (w/v) macerozyme R-10 (Yakult), 0.1% (w/v) bovine serum albumin, 10 mM CaCl2, 20 mM KCl, and 20 mM MES, pH 5.7] was prepared according to the method of Sheen (2002) (http://genetics.mgh.harvard.edu/sheenweb/).
A DNA fragment containing a portion or the whole of AREB1 cDNA was amplified by PCR and then the product was cloned into the Not I site of an expression vector pBI35SΩ (Abe et al., 1997, Plant Cell 9, 1859-1868). Thus, a plasmid having an AREB1 bZIP DNA binding domain was prepared. The plasmid was then used for an experiment for the analysis of transient expression. To remove a 640-base-pair fragment that was partially cleaved with EcoT14I from the pBI35SΩ-AREB1 plasmid, self-binding ligase reaction was performed after partial cleavage with EcoT14I. […]

Molecule	expression of the downstream gene RD29B (Northern analysis) (RD29B gene; wild-type (WT) and vector control plants, 50 μM ABA, 7 hours)	expression of the downstream RD29B gene (Northern analysis) (RD29B gene; 2-week-old seedlings of transformed plants, in the absence of ABA)	GUS activity (RD29B-GUS reporter) (RD29B-GUS reporter gene)
CC1=CC(=O)CC(C)(C)[C@@]1(O)/C=C/C(C)=C\C(=O)O [ABA, abscisic acid, reference compound]	could be confirmed only in the presence of 50 μM ABA	–	–
B1	–	not observed	significant enhancement in GUS activity

Reference: patent publication US20090089899A1, “Method for Enhancing Drought Stress Tolerance in Plants by Active AREB1” (priority 2005, published 2009)
